Experimental data taken from paper PMC3905869.

Assays:
VirB delta N [1] = molecular target: T1, VirB delta N (Shigella flexneri, UniProt P0A247 129-309); assay: fluorescence anisotropy
T1 sequence: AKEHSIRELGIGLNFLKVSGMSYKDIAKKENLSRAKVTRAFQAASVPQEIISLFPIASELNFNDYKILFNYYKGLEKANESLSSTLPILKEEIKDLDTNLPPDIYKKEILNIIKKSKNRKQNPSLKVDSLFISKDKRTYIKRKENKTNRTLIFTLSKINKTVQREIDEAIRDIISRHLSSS

VirB delta C [2] = molecular target: T2, VirB delta C (Shigella flexneri, UniProt P0A247 1-250); assay: fluorescence anisotropy
T2 sequence: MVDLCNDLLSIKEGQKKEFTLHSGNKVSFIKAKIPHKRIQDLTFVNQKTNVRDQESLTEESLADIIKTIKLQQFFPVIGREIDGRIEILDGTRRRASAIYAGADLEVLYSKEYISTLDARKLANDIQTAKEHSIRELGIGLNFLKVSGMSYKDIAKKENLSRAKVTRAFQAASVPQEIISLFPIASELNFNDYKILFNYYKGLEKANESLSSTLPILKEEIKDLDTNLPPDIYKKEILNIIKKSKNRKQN

VirB core (HTH domain) = molecular target: T3, VirB core (HTH domain) (Shigella flexneri, UniProt P0A247 129-250); assay: fluorescence anisotropy
T3 sequence: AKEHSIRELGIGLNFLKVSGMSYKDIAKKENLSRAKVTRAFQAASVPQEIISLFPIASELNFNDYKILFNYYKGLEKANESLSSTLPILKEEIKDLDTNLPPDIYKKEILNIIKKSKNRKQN

VirB FL [3] = molecular target: T4, VirB FL (Shigella flexneri, UniProt P0A247 1-309); assay: fluorescence anisotropy
T4 sequence: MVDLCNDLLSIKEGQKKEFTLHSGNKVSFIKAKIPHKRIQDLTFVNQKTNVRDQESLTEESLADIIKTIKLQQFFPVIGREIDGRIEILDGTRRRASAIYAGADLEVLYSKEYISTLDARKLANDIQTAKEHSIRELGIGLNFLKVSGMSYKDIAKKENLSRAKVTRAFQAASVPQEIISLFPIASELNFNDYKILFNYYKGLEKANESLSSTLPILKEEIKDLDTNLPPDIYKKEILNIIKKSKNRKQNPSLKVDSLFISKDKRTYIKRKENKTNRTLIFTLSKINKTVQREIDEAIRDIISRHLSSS

VirB delta C [4] = molecular target: T2, VirB delta C; assay: EMSA with self-competition
VirB FL [5] = molecular target: T4, VirB FL; assay: EMSA with self-competition
VirB delta N [6] = molecular target: T1, VirB delta N; assay: EMSA with self-competition
VirB delta C [7] = molecular target: T2, VirB delta C; assay: competition

B1: FAM-icsB-wt-50bp (dsDNA)
DNA 1: CTCGTTTCATCATGAAATCCCACAAGATAAAGTGCCTGATGTATCAGGCT
DNA 2: AGCCTGATACATCAGGCACTTTATCTTGTGGGATTTCATGATGAAACGAG
Kd (VirB delta N [1]): 12 ± 0.3 nM
Kd (VirB delta C [2]): 139 ± 15 nM
Kd (VirB core (HTH domain)): 16 ± 3 nM
Kd (VirB FL [3]): 11 ± 0.3 nM

B2: icsB-wt (dsDNA)
DNA 1: AAACTCGTTTCATCATGAAATCCCAC
DNA 2: GTGGGATTTCATGATGAAACGAGTTT
binding result (VirB delta C [4]): binds
binding result (VirB FL [5]): binds
binding result (VirB delta N [6]): binds

B3: icsB-mut (dsDNA)
DNA 1: AAACTCGTTTCATCGCTGGGCCCCAC
DNA 2: GTGGGGCCCAGCGATGAAACGAGTTT
binding result (VirB delta C [7]): no binding
